Some results are limits rather than exact numbers.

The format of assay [1] is in vivo. Conditions: subject 03; 1.5 g/m2 on day 17 after high-dose steroids without improvement.
Excerpt: This clinical trial was a phase 1 open-label study where the primary objective was safety.
The primary objective was to evaluate the safety of CART-BCMA in patients with relapsed/refractory myeloma. The primary endpoint was incidence of study-related grade 3 or higher AEs, including dose-limiting toxicities (DLTs). A DLT was defined as a serious AND unexpected AE whose relationship to study therapy could not be ruled out, occurring within 4 weeks of receiving protocol therapy.
In assay [2] the target is BCMA (B-cell maturation antigen) on the surface of cell lines (UniProt Q02223). Nature of the assay: flow cytometry on HBL-1 cells; Quantum Simply Cellular quantification kit. A general note: A flow cytometer gives signals particle by particle.
For assay [3] the target is unchanged. Nature of the assay: flow cytometry on SuDHL-6 cells; Quantum Simply Cellular quantification kit.

BCMA (B-cell maturation antigen) on the surface of cell lines, sequence (Q02223 whole entry): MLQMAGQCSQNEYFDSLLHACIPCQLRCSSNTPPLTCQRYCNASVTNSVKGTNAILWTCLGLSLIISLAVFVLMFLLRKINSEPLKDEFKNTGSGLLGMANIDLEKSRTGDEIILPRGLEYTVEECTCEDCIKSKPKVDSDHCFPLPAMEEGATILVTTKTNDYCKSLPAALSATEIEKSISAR

Consider `O=P1(N(CCCl)CCCl)NCCCO1` (stereo not drawn) [cyclophosphamide], for which the “time to rapid neurologic improvement of PRES-like grade 4 neurotoxicity” value in assay [1] is recorded as no more than 48 hours.

With “PE-labeled anti-BCMA antibody (Biolegend, cat #357504)”, the antibody binding capacity (ABC) in assay [2] and in assay [3] was greater than 5000 in each case.

These data come from patent US20200371091A1, “BCMA-TARGETING CHIMERIC ANTIGEN RECEPTOR, AND USES THEREOF” (Novartis AG, priority 2017, published 2020).
